Experimental data taken from FireProtDB (doi:10.1016/s0301-4622(02)00027-3).

B1: Endoglucanase C, P0C2S3 (parent)
chain: MVSFKAGINLGGWISQYQVFSKEHFDTFITEKDIETIAEAGFDHVRLPFDYPIIESDDNVGEYKEDGLSYIDRCLEWCKKYNLGLVLDMHHAPGYRFQDFKTSTLFEDPNQQKRFVDIWRFLAKRYINEREHIAFELLNEVVEPDSTRWNKLMLEYIKAIREIDSTMWLYIGGNNYNSPDELKNLADIDDDYIVYNFHFYNPFFFTHQKAHWSESAMAYNRTVKYPGQYEGIEEFVKNNPKYSFMMELNNLKLNKELLRKDLKPAIEFREKKKCKLYCGEFGVIAIADLESRIKWHEDYISLLEEYDIGGAVWNYKKMDFEIYNEDRKPVSQELVNILARRKT

Variants of: B1
Conditions: Acetivibrio thermocellus, pH 7.2, structure 1CEC, whole UniProt chain shown; for Tm / change of melting temperature, mutant - wild type (higher = more stable): Thermal, DSC, Tris 20 mM, reversible: No
[1] = 25 °C, GdnHCl, CD, Tris 50 mM, reversible: yes

In the case of MVSFKCGINLGGWISQYQVFSKEHFDTFITEKDIETIAEAGFDHVRLPFDYPIIESDDNVGEYKEDGLSYIDRCLEWCKKYNLGLVLDMHHAPGYRFQDFKTSTLFEDPNQQKRFVDIWRFLAKRYINEREHIAFELLNEVVEPDSTRWNKLMLEYIKAIREIDSTMWLYIGGNNYNSPDELKNLADIDDDYIVYNFHFYNPFFFTHQKAHWSESAMAYNRTVKYPGQYEGIEEFVKNNPKYSFMMELNNLKLNKELLRKDLKPAIEFREKKKCKLYCGEFGVIAIADLESRIKWHEDYISLLEEYDIGGAVWNYKKMDFEIYNEDRKPVSQELVNILACRKT [A6C R340C], the “ddG of mutation (higher = less stable)” value [1] is reported as -1.73 kcal/mol, the “denaturant midpoint (higher = more stable)” value [1] is reported as 2.61 M and the unfolding free energy [1] is reported as 8.03 kcal/mol. The Tm was 73.4 °C.

With MVSFKAGIDLGGWISQYQVFSKEHFDTFITEKDIETIAEAGFDHVRLPFDYPIIESDDNVGEYKEDGLSYIDRCLEWCKKYNLGLVLDMHHAPGYRFQDFKTSTLFEDPNQQKRFVDIWRFLAKRYINEREHIAFELLNEVVEPDSTRWNKLMLEYIKAIREIDSTMWLYIGGNNYNSPDELKNLADIDDDYIVYNFHFYNPFFFTHQKAHWSESAMAYNRTVKYPGQYEGIEEFVKNNPKYSFMMELNNLKLNKELLRKDLKPAIEFREKKKCKLYCGEFGVIAIADLESRIKWHEDYISLLEEYDIGGAVWNYKKMDFEIYNEDRKPVSQELVNILARRKT [N9D] the Tm was 63.9 °C and the “change of melting temperature, mutant - wild type (higher = more stable)” value (“change of melting temperature, mutant” below) was -6.5 °C.

With MVSFKAGINLGGWISQYQVFSKEHFDTFITEKDIETIAEAGFDHVRLPFDYPIIESDDNVGEYKEDGLSYIDRCLEWCKKYNLGLVLDMHHAPGYRFQDFKTSTLFEDPNQQKRFVDIWRFLAKRYINEREHIAFELLNEVVEPDSTRWNKLMLEYIKAIREIDSTMWLYIGGNNYNSPDELKNLADIDDDYIVYNFHFYNPFFFTHQKAHWSESAMAYDRAVKYPGQYEGIEEFVKNNPKYSFMMELNNLKLNKELLRKDLKPAIEFREKKKCKLYCGEFGVIAIADLESRIKWHEDYISLLEEYDIGGAVWNYKKMDFEIYNEDRKPVSQELVNILARRKT [N220D T222A] the Tm was 68.3 °C and the “change of melting temperature, mutant” value was -2.1 °C.

With MVSFKAGINLGGWISQYQVFSKEHFDTFITEKDIETIAEAGFDHVRLPFDYPIIESDDNVGEYKEDGLSYIDRCLEWCKKYNLGLVLDMHHAPGYRFQDFKTSTLFEDPNQQKRFVDIWRFLAKRYINEREHIAFELLNEVVEPDSTRWNKLMLEYIKAIREIDSTMWLYIGGNNYNSPDELKNLADIDDDYIVYNFHFYNPFFFTHQKAHWSESAMAYNRTVKYPGQYEGIEEFVKNNPKYSFMMELNNLKLNKELLRKDLKPAIEFREKKKCKLYCGEFGVIAIADLESRAKWHEDYISLLEEYDIGGAVWNYKKMDFEIYNEDRKPVSQELVNILARRKT [I293A] the Tm was 67.6 °C and the “change of melting temperature, mutant” value was -2.8 °C.

For MVSFKAGINLGGWISQYQVFSKEHFDTFITEKDIETIAEAGFDHVRLPFDYPIIESDDNVGEYKEDGLSYIDRCLEWCKKYNLGLVLDMHHAPGYRFQDFKTSTLFEDPNQQKRFVDIWRFLAKRYINEREHIAFELLNEVVEPDSTRWNKLMLEYIKAIREIDSTMWLYIGGNNYNSPDELKNLADIDDDYIVYNFHFYNPFFFTHQKAHWSESAMAYNRTVKYPGQYEGIEEFVKNNPKYSFMMELNNLKLNKELLRKDLKPAIEFREKKKCKLYCGEFGVIAIADLESRIKWHEDYISLLEEYDIGGAVWNYKKMDFEIYNEDRKPVSQGLVNILARRKT [E333G], the Tm was 69.4 °C and the “change of melting temperature, mutant” value was -1 °C.
